According to patent publication US20080141385, “Skn-1 and Gsk-3 Genes and Proteins” (published 2008):

T1: SKN-1 peptides (UniProt P34707)
T1 sequence: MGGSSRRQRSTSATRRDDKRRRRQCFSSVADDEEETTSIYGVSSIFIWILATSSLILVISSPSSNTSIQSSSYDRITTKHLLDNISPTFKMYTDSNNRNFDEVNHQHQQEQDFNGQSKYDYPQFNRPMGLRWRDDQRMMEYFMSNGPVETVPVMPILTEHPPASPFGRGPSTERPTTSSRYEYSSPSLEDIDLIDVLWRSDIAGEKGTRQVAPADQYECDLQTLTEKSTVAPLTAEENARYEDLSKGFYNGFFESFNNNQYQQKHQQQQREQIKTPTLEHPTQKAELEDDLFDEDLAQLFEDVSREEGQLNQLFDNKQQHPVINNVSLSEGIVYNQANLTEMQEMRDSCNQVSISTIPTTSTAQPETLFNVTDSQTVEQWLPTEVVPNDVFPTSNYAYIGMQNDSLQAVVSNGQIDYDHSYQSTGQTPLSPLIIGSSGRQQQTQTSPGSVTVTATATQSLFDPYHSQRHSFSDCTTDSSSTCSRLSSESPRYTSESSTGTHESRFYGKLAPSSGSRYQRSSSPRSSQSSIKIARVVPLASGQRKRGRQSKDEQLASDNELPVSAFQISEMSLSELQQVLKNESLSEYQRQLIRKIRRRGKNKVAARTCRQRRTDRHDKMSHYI

T2: SKN-1 DNA binding domain (SKN domain, 85 aa) (Caenorhabditis elegans, UniProt P34707 SEQ:1-85)
T2 sequence: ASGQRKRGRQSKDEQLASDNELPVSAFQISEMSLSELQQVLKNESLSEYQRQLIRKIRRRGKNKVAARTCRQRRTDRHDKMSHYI

T3: SKN-1 full-length (Caenorhabditis elegans, UniProt P34707 SEQ:1-533)
T3 sequence: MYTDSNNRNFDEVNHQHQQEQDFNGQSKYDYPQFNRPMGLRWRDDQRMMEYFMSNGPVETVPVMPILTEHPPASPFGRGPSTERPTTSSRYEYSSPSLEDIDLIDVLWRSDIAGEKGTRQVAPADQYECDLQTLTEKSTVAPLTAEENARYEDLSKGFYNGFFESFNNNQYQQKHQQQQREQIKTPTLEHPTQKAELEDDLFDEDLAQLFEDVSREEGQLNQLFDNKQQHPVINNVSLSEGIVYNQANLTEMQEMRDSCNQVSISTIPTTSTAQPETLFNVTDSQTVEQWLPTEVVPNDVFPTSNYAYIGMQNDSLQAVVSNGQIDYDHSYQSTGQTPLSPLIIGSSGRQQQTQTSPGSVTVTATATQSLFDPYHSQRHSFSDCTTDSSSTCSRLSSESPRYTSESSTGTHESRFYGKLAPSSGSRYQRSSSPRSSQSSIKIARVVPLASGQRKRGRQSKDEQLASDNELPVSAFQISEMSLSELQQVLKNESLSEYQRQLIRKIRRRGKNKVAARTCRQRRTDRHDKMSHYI


Experiments:
SKN-1 peptides = molecular target: T1, SKN-1 peptides
[1] = molecular target: T2, SKN-1 DNA binding domain (SKN domain, …); assay: EMSA; no binding to mutant probe; as unlabeled competitor much less effective than wild type; settings: label: 32P
Experimental: (§1) FIGS. 4A and 4B: Specific binding of SKN-1 to an essential gcs-1 promoter sequence. 4A: Binding of full-length SKN-1 to site 3 within the gcs-1 composite element, assayed by EMSA. Lanes 2-5 show binding of increasing amounts of in vitro translated SKN-1 protein (0 μl, 0.25 μl, 0.5 μl, 3 μl translation lysate; indicated by a triangle) to the wild type site. […] A background species is labeled. Lanes 6-10 show the same assay performed with the mutant probe. In lanes 11-20, SKN-1-DNA binding is assayed in the presence of the indicated unlabelled competitor oligonucleotides. Lanes 12-15 and 17-20 correspond to addition of a 20-, 50-, 150-, and 400-fold molar excess of competitor over the labeled wild-type DNA. 4B: The in vitro translated SKN-1 DNA binding domain (FIG. 1B) binds specifically to the gcs-1 composite element. Binding was assayed as in 4A.
(§2) Remarkably, SKN-1 binding site 3 is located within a 42 bp gcs-1 promoter element that is similar to a composite motif through which SKN-1 activates med-1 and med-2 in the embryo (FIGS. 1A and 3C) (Maduro et al. Mol. Cell 7: 475-485 (2001)). The conservation between these gcs-1 and med promoter elements is particularly striking because they are located at identical distances from their respective translation starts, but contain different numbers of SKN-1 sites (FIG. 3C). […]

SKN-1 full-length = molecular target: T3, SKN-1 full-length; assay: as above; settings: label: 32P
Experimental: as §1, §2

Molecule	phosphorylation of SKN-1 by GSK-3 (SKN-1 peptides)	phosphorylation of SKN-1 peptides by GSK-3 (SKN-1 peptides)	binding result [1]	binding result (SKN-1 full-length)
GSK-3	GSK-3 then phosphorylates SKN-1 sequentially in the amino-terminal direction	Phosphorylation by GSK-3 required priming phosphorylation at a serine or threonine residue located four positions carboxyl-terminal to the GSK-3 site		
gcs-1 composite element, site 3 mutant (dsDNA) DNA 1: ACTTTCTGCAGATGAGATTTAATGTTTCCTTTTGATTTTCT DNA 2: AGAAAATCAAAAGGAAACATTAAATCTCATCTGCAGAAAGT			no binding	no binding
